Measurements taken from PMC10460880, “Cathepsin K‐Activated Probe for Fluoro‐Photoacoustic Imaging of Early Osteolytic Metastasis” (Advanced Science, 2023).

Assays:
cathepsin K (CTSK) [1] = molecular target: T1, cathepsin K (CTSK) (Homo sapiens, UniProt P43235); test: Kinetic assay (Michaelis-Menten) of probe cleavage by CTSK; assay type: biochemical
T1 sequence (P43235 115-329): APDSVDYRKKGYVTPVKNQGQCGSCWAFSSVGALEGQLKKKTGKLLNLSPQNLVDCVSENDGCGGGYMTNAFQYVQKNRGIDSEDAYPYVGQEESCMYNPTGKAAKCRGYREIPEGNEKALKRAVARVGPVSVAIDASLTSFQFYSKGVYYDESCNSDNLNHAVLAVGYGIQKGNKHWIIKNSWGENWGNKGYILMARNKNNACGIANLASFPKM
Method: In vitro analysis of cathepsin K (CTSK) activation, selectivity, and sensitivity studies.
Probe CTSK-APPA, D-CTSK-APPA, or CTSK-APP (10 μM) was incubated with CTSK in MES buffer (50 mM, pH 6.0) containing 0.1% DMSO, 2 mM ethylene diamine tetraacetic acid (EDTA), 4 mM dithiothreitol (DTT) and 0.15% chondroitin sulfate (CS) at 37 °C for 1 h. After incubation at the indicated time, UV-Vis spectra, fluorescence spectra, fluorescence images, and PA images of the solutions were recorded. […]
PA images were captured by using a MSOT scanner with
Kinetic assay. Different concentrations of CTSK-APPA or CTSK-APP (1, 2, 5, 10, 20, or 50 μM) were incubated with CTSK (100 ng/mL) in MES buffer containing 0.1% DMSO, 2mM EDTA, 4mM DTT, and 0.15% CS at 37 °C for 5 min. Fluorescence intensities of solution were measured for quantification analyses by a microplate reader (BioTek, Synergy 2) with excitation at 690 nm and emission at 720 nm. The kinetic parameters were calculated according to the Michaelis-Menten equation shown below: V = Vmax×[S]/(Km + [S]), where V is initial velocity, and [S] is substrate concentration.
(1 picture or pasted object on this page, not shown here)

[2] = Histology (H&E) of organs after injection; assay type: in vivo, mice; conditions: 24 h post intravenous administration
[3] = system: CTSK-overexpressing OCs on calf bone slice; test: In vitro bone resorption imaging assay; assay type: cell-based, C57BL/6J mice; conditions: probe 5 μM, 37 °C, 2 h; Ex 660 nm, Em 710 nm; n = 3
Method: PS. RAW 264.7 cells and BMMs were maintained in an atmosphere of 5% CO2 and 95% humidified air at 37 °C. The medium was changed every day.
Cell cytotoxicity assay. MDA-MB-231/Luc and RAW 264.7 cells were seeded in 96-well plates (5×10^3 cells per well) for 24 h and then incubated with CTSK-APPA or CTSK-APP (5, 10, 20, 50 μM) or saline for 24 h. The medium was removed and cells were incubated with CCK-8 (0.5 mg/mL) for another 1 h. The absorbance of the mixture at 450 nm was measured by using a microplate reader. Cell viability was expressed by the ratio of the absorbance of the cells incubated with the probes to that of the cells incubated with culture medium only.
In vitro osteoclast differentiation. Bone marrow-derived macrophages were isolated from the femurs and tibias of 4-week-old C57BL/6J mice and cultured in a complete medium containing M-CSF (30 ng/mL) for 4 days. BMMs were harvested to the 24-well plates (1×10^4 per well) and cultured in the complete medium containing M-CSF (30 ng/mL) and RANKL (100 ng/mL) for another 4 days. The osteoclasts were fixed and stained by using acid phosphatase and a leukocyte kit according to the manufacturer’s procedures.
In vitro bone resorption imaging assay. […]
Fluorescence images were captured by using the IVIS Spectrum imaging system with excitation […]

[4] = system: BMMs, MDA-MB-231 cells, MCF-7 cells, neutrophils; test: Cell selectivity experiment, other cells; assay type: cell-based; conditions: MDA-MB-231, MCF-7, neutrophils, n = 3
cathepsin K (CTSK) [5] = molecular target: T1, cathepsin K (CTSK); test: CTSK activation of probe adsorbed on HA; assay type: biochemical; conditions: probe 10 μM on HA 10 mg/mL (30 min), then CTSK 200 ng/mL, n = 3
Method: In Vitro bone-binding and CTSK activation assay. Hydroxyapatite (HA) was used as a substitute for bone in vitro to evaluate the bone-binding ability of CTSK-APPA and CTSK-APP. CTSK-APPA or CTSK-APP (10 μM) was mildly stirred with HA (10 mg/mL) at 37 °C for different times (0, 10, 30, 60, and 120 min). The mixture was centrifugated at 4000 g for 5 min and then washed with a 10-fold excess of PBS (1×) three times. The efficiency of HA binding was determined from the fluorescence intensities of the precipitation according to the equation: (F – Fblank)/(F0 – Fblank)*100%, where F represents the fluorescence intensity of the precipitation incubated with HA for a determined time, and Fblank represents the blank fluorescence intensity. After verifying the appropriate bone-binding time, CTSK-APPA or CTSK-APP (10 μM) was mixed with HA (10 mg/mL) at 37 °C for 30 min, and then CTSK (200 ng/mL) was added to the corresponding mixture and incubated at 37 °C for another 1 h under mild stirring. The mixture was centrifugated at 4000 g for 5 min and then washed with a 10-fold excess of MES buffer (50 mM, pH 6.0) three times. Fluorescence images were captured by using the IVIS Spectrum imaging system with excitation at 660 ± 10 nm and emission at 710 ± 10 nm. PA images were captured by using a MSOT scanner with excitation at 700 nm. […]

fluorescence on/off ratio of HA-adsorbed probe (cathepsin K (CTSK) [5]; Ex 660 nm, 720 nm): 5.1 | enhancement factor for PA signal of HA-adsorbed probe (cathepsin K (CTSK) [5]; Ex 700 nm): approximately 2.8
Substance: Cbz‐Leu‐Arg‐OH [CTSK-APPA]
catalytic efficiency (kcat/Km) (cathepsin K (CTSK) [1]; from Km and kcat): 890000 M⁻¹ s⁻¹ | Km (cathepsin K (CTSK) [1]; probe 1-50 μM, CTSK 100 ng/mL, MES buffer, 37 °C, 5 min, Ex 690/Em 720 nm, n = 3, read-out: Michaelis–Menten constant (Km)): 22.9 µM | catalytic rate constant (kcat) (cathepsin K (CTSK) [1]; probe 1-50 μM, CTSK 100 ng/mL, MES buffer, 37 °C, 5 min, n = 3): 20.4 s⁻¹ | histological changes (H&E) after injection [2]: no histological changes | NIR fluorescence of bone-resorption slice vs normal bone slices [3]: stronger NIR fluorescence signal | NIR fluorescence activation by other cells [4]: did not induce NIR fluorescence activation
